Assay: soluble on expression in E. coli; label from the status in PepcDB or PDB records

Sequence | soluble on expression in E. coli
MWSFRAWRRRRLLARHPVAEELWQRVRRHLPILDGLDADEDRRLRERAVLFLADKHLTALAGVDLDDFGRLLLAAQAQLPLLHLPELNWYQGFHELVLYPDDFVSPQKHRDASGVVHEFDDERSGETSLQGPVVLAWPGVVGGGGWDAYNLVIHELAHKLDMLNGDANGLPPLHAGMRIGDWASAMQAAYDEMNALLDRDPDAQTAIDPYAAEDPAEFFAVTSEYFFTAPDLLHEAYPAVYRQLQLFYRQDPLQRLRRLQAEHPDYREAAGDTTNG | not soluble
MYLVTGATGQLGLRVVRRCITLGLPVRAFVRLTSQYELLKEWGAEIFIGDLQQPRDIQAAMKGVEAVICCHGSQLLSRAIQAIDYRATLDVIQAAQEQGVRYLTLISPLAVTGDRQQSPFLKAKYEVEQVLISSGLNYSIFRCPTLMSSLLPLAERFQQTGVYIVLGDPQHRLQLLSPDDLARCILIASQASQPAIFSMAHPEVFTRQEIADRLGRFFNRRPFVMTVPLSVIDGARQFLGVMSRDLDASLGTLRTLLAYESLCPASEIERAQTYFQLSFESLETFLGRYFLEHHHHHH | not soluble
MGSDKIHHHHHHMHTMHIPSGDVLIPKPKLITEETDPLHIIKTRQKTHGRPVTIAGPMVRYSKLPFRQLCREYNVDIVYSPMILAREYVRNEHARISDLSTNNEDTPLIVQVGVNNVADLLKFVEMVAPYCDGIGINCGCPIKEQIREGIGCALIYNSDLLCSMVHAVKDKYGDKLRIETKIRIHEALDETVELCRKLCDAGVDWITIHGRTRRTRSSQPANLDAIKYIIENISDKNVPVIANGDCFKLSDLERITKYTGAHGVMAVRGLLSNPALFAGYTTCPWGCIEKFCYWALEFGGLPFQLAQHHLYCMLENMELKKSLLKKMMNLKNYISLIDWFNKTFEFKRYGEDGFGMGVEIPYKANSCVQRSASVVERQE | not soluble
MTATWSVNKKIFLQNAITVKNNQPLMAVVKNNAYHYDLEFAVTQFIHAGIDTFSTTSLREAIQIRQLAPDATIFLMNAVYEFDLVREHQIHMTLPSLTYYYNHKNDLAGIHVHLEFENLLHRSGFKDLNEIKEVLKDHHHNQNAKMIISGLWTHFGYADEFDVSDYNVERSQWMEIVEALLSEGYQFDLIHAQNSASFYREGQILLPHHTHARVGIALYGSRPYSSLNQHDIVQSLTLKAHVIQVREVQAGDYCGYSFAFEVTKNNTKLAVVDIGYGDGILRTRAKHEALINGKRYPIRALMMSHMFVEVDGNVHAQDEVILYNNDIRIDEYTFKGVGANSEQLSAMNHDSLKKEYISNDC | not soluble
MGSDKIHHHHHHMKKHKIGIYEKALPKNITWQERLSLAKACGFEFIEMSIDESNDRLSRLNWTKSERIALHQSIIQSGITIPSMCLSAHRRFPFGSKDKKIRQKSFEIMEKAIDLSVNLGIRTIQLAGYDVYYEKQDEETIKYFQEGIEFAVTLAASAQVTLAVEIMDTPFMSSISRWKKWDTIINSPWFTVYPDIGNLSAWNNNIEEELTLGIDKISAIHLKDTYPVTETSKGQFRDVPFGQGCVDFVHFFSLLKKLNYRGAFLIEMWTEKNEEPLLEIIQARKWIVQQMEKAGLLC | not soluble
MSLSQANRVFITGRSALTASGATADETWNAIISGQCGIDEINFWELSEWSHRLGGEIKDFQPSKMLPDRKLIKVISRQDIMGINAAVQAVEHSKMIAYRDSLADADLFNEQTAIYVGSPGNKYFQQYDFIPLLAKTHGDMRSFANQLFDEVHPMWLLRILPNNVLAYTGITYGFKGPNHNVTNHAVGGTQAILEAYHAIRSGQAERAVVVAYDIGTEPQGLFYYEKLGVVSNRHLKPFDKEHDGTILAEGAAALVLESEASVKSRAATCYGEIVGGLSASEATGLFSIEADGQHLASLMGQTLSTSGINSEEIGLIVTHGNGNSKSDDSEALAIKSVFKQEEVPATAFKWSMGHTLCASGVLDAVLTTYALETKCVPGIANFQQIAPTCEGLSVSREHREIISNSYAMMINRGFASMNVCLVIKACEEGHHHHHH | not soluble
MNGAELIIQEINKEAERKIEYILNEARQQAEKIKEEARRNAEAKAEWIIRRAKTQAELEKQRIIANARLEVRRKRLAIQEEIISSVLEEVKRRLETMSEDEYFESVKALLKEAIKELNEKKVRVMSNEKTLGLIASRIEEIKSELGDVSIELGETVDTMGGVIVETEDGRIRIDNTFEARMERFEGEIRSTIAKVLFG | soluble

Reference: the DeepSol protein solubility set
